# Laboratory results from patent US7537764.
# Biological target: whole inactivated rabies virus (rabies virus)
# Experiment: phage ELISA on coated whole inactivated rabies virus
row,Binder,OD 492 nm [OD]
1,SC04-374 (scFv) scFv: QVTLKESGPTLVKPTQTLTLTCTFSGFSLSTSGVGVGWIRQPPGKALEWLAVIYWNDDKLYRPSLKSRLTITKDTSKNQVVLTMTKMDPVDTATYYCAHRHRYYDISGYYRLFSDAFDIWGQGTMVTVSSGTGGSGGTGSGTGGSTQSVVTQPPSVSGAPGQRVTISCTGSSSNIGAGYDVHWYQQLPGTAPKLLIYGNSNRPSGVPDRFSGSKSGTSASLAITGLQAEDEADYYCQSYDSSLSGSVFGGGTKLTVLG,0.056
2,SC04-353 (scFv) scFv: EVQLVQSGGGVVQPGRSLRLSCAASGFTFSNYAMHWVRQAPGKGLEWVAVISYDGGNKYYADSVKGRFTMSRDNSKNTLYLQMNSLRAEDTAVYYCARDFWSGYSMVDSYYYYMDVWGKGTTVTVSSGTGGSGGTGSGTGGSTETTLTQSPGTLSLSPGERATLSCRASQSVSNTFLAWYQQKPGQAPRLLIYGASSRATGIPDRFSGSGSGTDFTLTISRLEPEDFAAYYCQQYGSSLTFGPGTKVDIKR,0.057
3,SC04-361 (scFv) scFv: EVQLVQSGAEVKKPGESLKISCKASGFSFSTYWIGWVRQMPGKGLEWMGIIYPADSDTRYSPSFQGQVTISADKSISTAYLQWSSLKASDTAMYYCARLRGPYYDFWNGYRETHDAFNVWGQGTMVTVSSGTGGSGGTGSGTGGSTDVVMTQSPDSLAVSLGERATINCKSSQNILDNSDNKNFLAWYQQKPGQPPKLLIYWASARESGVPDRFSGSGSGTDFTLTISSLQAEDVALYYCQQYYNTPITFGQGTRLEIKR,0.059
